Experimental data from patent US20210198377A1 (XDCEXPLORER SHANGHAI, published 2021).

T1: human TPBG-hFc (human, UniProt Q13641 32-355)
T1 construct: also called immunogen A; hFc tagged TPBG protein; not shown: The human IgG Fc fragment of the pCpC vector (Invitrogen V044-50) and any linker to it
T1 sequence: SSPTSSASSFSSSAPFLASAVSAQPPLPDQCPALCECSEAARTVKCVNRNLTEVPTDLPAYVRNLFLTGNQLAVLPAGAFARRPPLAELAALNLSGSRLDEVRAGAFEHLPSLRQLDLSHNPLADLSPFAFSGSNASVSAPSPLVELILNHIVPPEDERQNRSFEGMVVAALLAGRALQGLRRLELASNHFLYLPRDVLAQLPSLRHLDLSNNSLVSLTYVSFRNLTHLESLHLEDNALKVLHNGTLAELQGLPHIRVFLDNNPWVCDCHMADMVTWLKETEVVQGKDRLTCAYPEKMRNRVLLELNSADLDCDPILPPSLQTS

T2: biotinylated recombinant TPBG protein (Homo sapiens (Human), UniProt Q13641 32-355, Biotinylated; the number and positions of the biotin labels are not stated and the letters do not carry them.)
T2 sequence: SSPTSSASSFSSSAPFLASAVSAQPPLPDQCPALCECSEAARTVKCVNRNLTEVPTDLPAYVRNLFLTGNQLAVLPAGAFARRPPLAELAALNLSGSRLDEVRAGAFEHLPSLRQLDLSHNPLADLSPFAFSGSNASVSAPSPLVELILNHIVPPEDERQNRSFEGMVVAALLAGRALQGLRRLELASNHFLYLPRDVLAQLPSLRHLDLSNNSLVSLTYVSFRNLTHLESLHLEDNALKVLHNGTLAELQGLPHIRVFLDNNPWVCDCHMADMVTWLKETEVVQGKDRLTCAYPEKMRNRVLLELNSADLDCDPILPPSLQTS


Experiments:
human TPBG-hFc [1] = target: T1, human TPBG-hFc; assay: ELISA, coated human TPBG-hFc 1.0 ug/mL; antibody 2 nM
Procedure: (§1) The purified immunogen A (as for its method of preparation please refer to step 1 in Example 1) diluting with PBS to a final concentration of 1.0 μg/mL was aliquoted into a 96-well ELISA plate at 100 μL per well, and sealed with a parafilm and incubated at 4° C. overnight. The plate was washed twice with plate washing buffer (PBS containing 0.01% (v/v) Tween 20), and blocked with blocking buffer (PBS containing 0.01% (v/v) Tween 20 and 1% (w/w) BSA) at room temperature for 2 h. The blocking buffer was discarded, and 100 μL per well of the purified antibody obtained from Embodiment 2 was added. After incubating at 37° C. for 2 h, the plate was washed for three times with plate washing buffer (PBS containing 0.01% (v/v) Tween 20). HRP (horseradish peroxidase)-labeled secondary antibody (purchased from Sigma) was added and incubated at 37° C. for 2 h, and the plate was washed for three times using plate washing buffer (PBS containing 0.01% (v/v) Tween 20). 100 μL of TMB substrate was aliquoted into each well, incubated at room temperature for 30 min, and 100 μL of stop buffer (1.0N HCl) per well was subsequently added. A₄₅₀ₙₘ values were read using the ELISA plate reader (SpectraMax 384plus purchased from Molecular Device), and the results were shown in FIG. 6 and table 6. […] In Table 6 the IgG control herein is a mice IgG control, the data in the Table are OD₄₅₀ₘₙ values, and Blank means the OD₄₅₀ₘₙ value when there is only PBS buffer in the plate.

human TPBG-hFc [2] = target: T1, human TPBG-hFc; assay: ELISA, coated human TPBG-hFc 1.0 ug/mL; antibody 0.2 nM
Procedure: as §1

human TPBG-hFc [3] = target: T1, human TPBG-hFc; assay: ELISA, coated human TPBG-hFc 1.0 ug/mL; antibody 0.002 nM
Procedure: as §1

[4] = target: T2, biotinylated recombinant TPBG protein; assay: competitive ELISA; row antibody 5 ug/mL; competitor: coated 28D4E6A9
Procedure: (§2) The purified antibodies to be tested were diluted to 1 μg/mL using PBS, and coated with high-adsorption of 96-well microplates at […]. After overnight coating at 4[…], 250 μL of blocking buffer (PBS containing 0.01% (v/v) Tween20 and 1% (w/w) BSA) was added to block coating at room temperature for 1 h, and 0.05 μg/mL of biotinylated recombinant TPBG protein was added to each well. Meanwhile, 5 μg/mL final concentration of competitive antibodies, i.e. the purified antibodies obtained from Embodiment 2 with the clone number of 12B12C7C3, 5G4H10G5, 37H9C5G2, 39A11G5F2, 52C9E9F6, 28D4E6A9, 36A10D8B12, 99E12C7H1, 103E2E9C2 and 106D5G3D10 were added and incubated at 25-37° C. for 1-2 h. The plates were washed three times with plate-washing buffer (PBS containing 0.01% (v/v) Tween20) and HRP (horseradish peroxidase)-labeled streptavidin (purchased from Sigma) was added. After incubating at 37° C. for 0.5 h, the plates were washed three times with plate-washing buffer (PBS containing 0.01% (v/v) Tween20), and 100 μL of TMB substrate was added to each well and the plates were further incubated at room temperature for 30 min prior to adding 100 μL of stop buffer (1.0N HCl) to each well. A₄₅₀ₙₘ values were read using an ELISA microplate reader (SpectraMax 384plus purchased from Molecular Device) and results were shown in FIG. 6. The higher the values of the competition rate, the closer the antigen surface of the two antibodies are.

[5] = target: T2, biotinylated recombinant TPBG protein; assay: competitive ELISA; row antibody 5 ug/mL; competitor: coated 52C9E9F6
Procedure: as §2

[6] = target: T2, biotinylated recombinant TPBG protein; assay: competitive ELISA; row antibody 5 ug/mL; competitor: coated 103E2E9C2
Procedure: as §2

[7] = target: T2, biotinylated recombinant TPBG protein; assay: competitive ELISA; row antibody 5 ug/mL; competitor: coated 12B12C7C3
Procedure: as §2

[8] = target: T2, biotinylated recombinant TPBG protein; assay: competitive ELISA; row antibody 5 ug/mL; competitor: coated 99E12C7H1
Procedure: as §2

[9] = target: T2, biotinylated recombinant TPBG protein; assay: competitive ELISA; row antibody 5 ug/mL; competitor: coated 106D5G3D10
Procedure: as §2

[10] = target: T2, biotinylated recombinant TPBG protein; assay: competitive ELISA; row antibody 5 ug/mL; competitor: coated 36A10D8B12
Procedure: as §2

Binder | OD450nm (human TPBG-hFc [1]) | OD450nm (human TPBG-hFc [2]) | OD450nm (human TPBG-hFc [3]) | competition rate [4] | competition rate [5] | competition rate [6] | competition rate [7] | competition rate [8] | competition rate [9] | competition rate [10]
12B12C7C3 (antibody, V domains shown, Mouse hybridoma antibody purified from culture supernatant; also called TPBG antibody; lead antibody) VH: DVQLVESGGGLVQPGGSRKLSCAASGFTFSNFGMHWVRQAPEKGLEWVAYISSGSTSFYYADTVKGRFTISRDNPKNTLFLQMTSLRSEDTAMYYCSRTNSLLRGFFDAWGAGTTVTVSS VL: DIVLTQSPASLAVSLGQRATISCRASQSVSSSSYTYLHWYQQKPGQPPKLLIKSASNLESGVPARFSGTGSGTDFTLNIHPVEEEDTATYYCQHSWEIPLTFGAGTKLELK | 2.84 OD450nm | 1.67 OD450nm | 0.13 OD450nm | 74% | 4% | 0% | 97% | 25% | 96% | 3%
106D5G3D10 (antibody, V domains shown, Mouse hybridoma antibody purified from culture supernatant; also called TPBG antibody; lead antibody) VH: EVQLVESGGGLVKPGGSLKLSCAASGFTFSDYGMHWVRQAPEKGLEWVGYISSGTYVVYYADTVKGRFTISRDNAKNTLFLQMTSLRSEDTAIYYCSTYGSNPFDYWGQGTTLTVSS VL: QLVLTQSPAIMSASPGEKVTITCSATSSVSSMHWFQQKPVTSPKLWIYSTSNLASGVPTRFSGSGSGTSYSLTISRMEAEDAATYYCQQRSGYPPIFTFGSGTKLEIK | 2.81 OD450nm | 2.36 OD450nm | 0.16 OD450nm | 1% | 0% | 0% | 95% | 11% | 94% | 1%
